Measured values: doi:10.1101/2024.09.21.614250 (bioRxiv, 2024)

T1: Shp2^tSH2 (aa5-218), C-terminally SNAP-tag-fused, SC505-labeled (human, UniProt Q06124 5-218, Snap-Cell505 star (SC505) label on the SNAP-tag)
T1 sequence: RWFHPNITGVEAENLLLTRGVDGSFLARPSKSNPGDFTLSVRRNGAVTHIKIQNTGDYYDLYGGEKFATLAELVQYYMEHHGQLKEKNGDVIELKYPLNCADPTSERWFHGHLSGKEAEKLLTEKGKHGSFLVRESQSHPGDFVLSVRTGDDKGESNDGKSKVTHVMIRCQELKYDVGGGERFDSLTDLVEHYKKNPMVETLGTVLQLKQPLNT

T2: Shp1^tSH2 (aa4-215), C-terminally SNAP-tag-fused, SC505-labeled (human, UniProt P29350 4-215, Snap-Cell505 star (SC505) label on the SNAP-tag)
T2 sequence: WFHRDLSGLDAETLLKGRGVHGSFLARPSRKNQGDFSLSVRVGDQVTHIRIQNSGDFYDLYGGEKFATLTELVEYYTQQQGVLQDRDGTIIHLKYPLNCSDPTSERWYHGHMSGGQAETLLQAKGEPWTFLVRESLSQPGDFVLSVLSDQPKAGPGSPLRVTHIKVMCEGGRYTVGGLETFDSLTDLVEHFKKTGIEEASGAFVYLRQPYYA

B1: His-tagged huPD1 ICD WT, phosphorylated by Lck (domain or fragment)
chain: CSRAARGTIGARRTGQPLKEDPSAVPVFSVDYGELDFQWREKTPEPPVPCVPEQTEYATIVFPSGMGTSSPARRGSADGPRSAQPLRPEDGHCSWPL
modifications: phosphorylated by Lck on the LUV after ATP addition (sites not stated for this assay)
B2: His-tagged moPD1 ICD WT, phosphorylated by Lck (domain or fragment)
chain: CSTSMSEARGAGSKDDTLKEEPSAAPVPSVAYEELDFQGREKTPELPTACVHTEYATIVFTEGLGASAMGRRGSADGLQGPRPPRHEDGHCSWPL
modifications: phosphorylated by Lck on the LUV after ATP addition (sites not stated for this assay)

Key:
[1] = target: T1, Shp2^tSH2 (aa5-218), C-terminally …; assay: FRET or BRET
[2] = target: T2, Shp1^tSH2 (aa4-215), C-terminally …; assay: FRET or BRET

| Binder | Kd [1] [nM] | binding result [2] |
| --- | --- | --- |
| B1 | 76 | binds |
| B2 | 220 | binds |
